Test results published in IntAct's records for PubMed 36931259.

B1: 14-3-3 protein sigma (Homo sapiens), P31947 (parent)
chain: MERASLIQKAKLAEQAERYEDMAAFMKGAVEKGEELSCEERNLLSVAYKNVVGGQRAAWRVLSSIEQKSNEEGSEEKGPEVREYREKVETELQGVCDTVLGLLDSHLIKEAGDAESRVFYLKMKGDYYRYLAEVATGDDKKRIIDSARSAYQEAMDISKKEMPPTNPIRLGLALNFSVFHYEIANSPEEAISLAKTTFDEAMADLHTLSEDSYKDSTLIMQLLRDNLTLWTADNAGEEGGEAPQEPQS
partner: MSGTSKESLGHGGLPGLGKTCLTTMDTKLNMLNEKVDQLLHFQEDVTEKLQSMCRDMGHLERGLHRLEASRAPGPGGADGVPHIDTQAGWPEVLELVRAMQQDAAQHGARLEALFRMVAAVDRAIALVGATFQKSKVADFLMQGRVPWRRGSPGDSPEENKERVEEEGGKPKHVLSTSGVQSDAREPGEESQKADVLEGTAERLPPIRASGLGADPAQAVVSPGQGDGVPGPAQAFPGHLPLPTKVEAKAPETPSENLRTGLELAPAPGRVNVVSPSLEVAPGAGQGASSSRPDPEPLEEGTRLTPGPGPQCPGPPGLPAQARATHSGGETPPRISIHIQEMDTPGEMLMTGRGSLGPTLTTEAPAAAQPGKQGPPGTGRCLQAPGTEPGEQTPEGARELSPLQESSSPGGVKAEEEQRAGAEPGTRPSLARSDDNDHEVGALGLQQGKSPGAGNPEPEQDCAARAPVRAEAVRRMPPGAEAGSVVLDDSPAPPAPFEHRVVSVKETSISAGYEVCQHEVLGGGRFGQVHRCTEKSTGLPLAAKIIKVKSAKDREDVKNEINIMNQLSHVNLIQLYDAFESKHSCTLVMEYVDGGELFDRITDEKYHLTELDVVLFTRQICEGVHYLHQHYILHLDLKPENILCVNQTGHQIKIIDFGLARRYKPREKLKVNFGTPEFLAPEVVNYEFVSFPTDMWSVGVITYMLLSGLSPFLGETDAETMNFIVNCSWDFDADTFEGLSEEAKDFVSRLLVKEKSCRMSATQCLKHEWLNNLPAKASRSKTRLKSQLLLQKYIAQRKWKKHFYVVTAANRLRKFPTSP
B2: 14-3-3 protein sigma (Homo sapiens), P31947 (parent)
chain: B1 chain
partner: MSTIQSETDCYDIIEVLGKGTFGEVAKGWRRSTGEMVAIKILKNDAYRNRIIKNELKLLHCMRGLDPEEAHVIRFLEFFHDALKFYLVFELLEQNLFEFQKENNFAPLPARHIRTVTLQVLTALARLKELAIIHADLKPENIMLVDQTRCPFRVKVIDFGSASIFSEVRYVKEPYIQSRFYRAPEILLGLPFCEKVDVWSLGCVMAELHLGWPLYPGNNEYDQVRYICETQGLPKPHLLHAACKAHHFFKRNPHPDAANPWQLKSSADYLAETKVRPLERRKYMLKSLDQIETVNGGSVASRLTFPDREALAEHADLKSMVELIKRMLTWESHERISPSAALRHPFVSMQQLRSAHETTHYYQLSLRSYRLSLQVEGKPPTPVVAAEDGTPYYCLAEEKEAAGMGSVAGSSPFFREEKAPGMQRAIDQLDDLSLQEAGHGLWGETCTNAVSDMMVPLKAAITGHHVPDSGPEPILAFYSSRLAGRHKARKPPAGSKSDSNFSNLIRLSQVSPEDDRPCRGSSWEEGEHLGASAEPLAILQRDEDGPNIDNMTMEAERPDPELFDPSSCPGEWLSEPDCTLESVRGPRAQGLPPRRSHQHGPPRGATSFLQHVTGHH
B3: 14-3-3 protein sigma (Homo sapiens), P31947 (parent)
chain: B1 chain
partner: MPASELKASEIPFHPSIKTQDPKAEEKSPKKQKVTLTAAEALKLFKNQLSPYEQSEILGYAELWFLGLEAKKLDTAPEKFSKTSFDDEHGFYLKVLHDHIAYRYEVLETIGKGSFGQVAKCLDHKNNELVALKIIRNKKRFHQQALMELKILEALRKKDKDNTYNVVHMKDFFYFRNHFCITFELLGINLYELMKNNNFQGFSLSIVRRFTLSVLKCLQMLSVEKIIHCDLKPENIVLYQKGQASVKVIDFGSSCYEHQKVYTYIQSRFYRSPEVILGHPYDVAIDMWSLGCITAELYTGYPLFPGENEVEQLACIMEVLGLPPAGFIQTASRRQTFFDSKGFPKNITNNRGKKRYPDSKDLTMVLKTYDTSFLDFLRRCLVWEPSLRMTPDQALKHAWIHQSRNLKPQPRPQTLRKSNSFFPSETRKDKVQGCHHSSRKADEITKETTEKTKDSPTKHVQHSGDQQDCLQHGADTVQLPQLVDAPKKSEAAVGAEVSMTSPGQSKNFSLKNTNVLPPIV
B4: 14-3-3 protein sigma (Homo sapiens), P31947 (parent)
chain: B1 chain
partner: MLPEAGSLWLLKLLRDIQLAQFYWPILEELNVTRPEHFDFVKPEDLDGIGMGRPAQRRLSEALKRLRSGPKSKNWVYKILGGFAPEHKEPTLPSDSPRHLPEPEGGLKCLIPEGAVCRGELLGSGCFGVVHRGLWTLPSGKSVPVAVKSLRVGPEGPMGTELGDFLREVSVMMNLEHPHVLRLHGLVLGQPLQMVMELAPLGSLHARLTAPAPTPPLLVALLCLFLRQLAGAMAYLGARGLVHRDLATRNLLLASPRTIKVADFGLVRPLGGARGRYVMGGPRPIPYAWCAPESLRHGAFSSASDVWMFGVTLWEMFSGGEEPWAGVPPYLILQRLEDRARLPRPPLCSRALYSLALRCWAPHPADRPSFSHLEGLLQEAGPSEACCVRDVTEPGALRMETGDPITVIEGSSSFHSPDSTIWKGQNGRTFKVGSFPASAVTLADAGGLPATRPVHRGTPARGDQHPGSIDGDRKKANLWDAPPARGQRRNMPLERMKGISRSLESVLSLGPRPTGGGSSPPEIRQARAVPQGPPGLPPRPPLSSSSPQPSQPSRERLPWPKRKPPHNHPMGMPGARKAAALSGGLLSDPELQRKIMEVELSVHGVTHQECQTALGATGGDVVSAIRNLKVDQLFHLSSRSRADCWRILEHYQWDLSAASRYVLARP
B5: 14-3-3 protein sigma (Homo sapiens), P31947 (parent)
chain: B1 chain
partner: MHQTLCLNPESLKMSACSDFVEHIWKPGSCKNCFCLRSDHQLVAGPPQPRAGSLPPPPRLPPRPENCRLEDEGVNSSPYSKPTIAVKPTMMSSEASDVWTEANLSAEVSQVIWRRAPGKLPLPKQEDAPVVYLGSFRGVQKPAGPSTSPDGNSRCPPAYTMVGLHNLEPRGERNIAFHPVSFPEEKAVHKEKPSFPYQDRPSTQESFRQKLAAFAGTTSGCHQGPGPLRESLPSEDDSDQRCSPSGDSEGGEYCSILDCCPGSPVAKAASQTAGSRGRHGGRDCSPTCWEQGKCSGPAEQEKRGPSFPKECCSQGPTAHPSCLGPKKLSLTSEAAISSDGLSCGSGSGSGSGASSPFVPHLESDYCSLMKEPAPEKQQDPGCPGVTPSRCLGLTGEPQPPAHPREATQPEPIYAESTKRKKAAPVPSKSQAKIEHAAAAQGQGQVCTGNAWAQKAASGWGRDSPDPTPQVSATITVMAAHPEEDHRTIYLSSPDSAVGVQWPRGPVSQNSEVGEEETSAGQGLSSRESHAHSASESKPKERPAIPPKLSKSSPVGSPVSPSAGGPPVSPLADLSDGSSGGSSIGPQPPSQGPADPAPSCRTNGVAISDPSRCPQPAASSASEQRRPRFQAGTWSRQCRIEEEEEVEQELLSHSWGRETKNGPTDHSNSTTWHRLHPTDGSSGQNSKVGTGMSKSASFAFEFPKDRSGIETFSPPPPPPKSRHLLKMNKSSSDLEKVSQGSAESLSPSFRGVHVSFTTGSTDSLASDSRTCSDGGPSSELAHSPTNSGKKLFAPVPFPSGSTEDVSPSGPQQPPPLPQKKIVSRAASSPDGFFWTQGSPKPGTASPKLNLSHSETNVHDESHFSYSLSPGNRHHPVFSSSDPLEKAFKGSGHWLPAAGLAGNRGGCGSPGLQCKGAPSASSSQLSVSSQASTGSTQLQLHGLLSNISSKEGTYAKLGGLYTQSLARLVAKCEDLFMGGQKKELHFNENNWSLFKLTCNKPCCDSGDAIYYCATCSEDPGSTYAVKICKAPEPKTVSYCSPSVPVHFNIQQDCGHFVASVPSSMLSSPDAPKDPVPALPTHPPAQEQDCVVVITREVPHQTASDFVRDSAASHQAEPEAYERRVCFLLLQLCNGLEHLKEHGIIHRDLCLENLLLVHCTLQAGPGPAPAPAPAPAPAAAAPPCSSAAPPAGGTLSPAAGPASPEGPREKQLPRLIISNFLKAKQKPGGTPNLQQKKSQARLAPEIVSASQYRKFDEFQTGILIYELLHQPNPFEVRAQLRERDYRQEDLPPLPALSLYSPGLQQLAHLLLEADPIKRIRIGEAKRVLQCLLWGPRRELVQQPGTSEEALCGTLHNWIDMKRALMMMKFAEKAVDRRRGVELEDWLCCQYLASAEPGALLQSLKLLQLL

Variants of: B1
Conditions: with mylk3_human MYLK3, Q32MK0

| effect of a mutation on the interaction | Variant |
| --- | --- |
| decreasing interaction strength | MERASLIQKAKLAEQAERYEDMAAFMKGAVEKGEELSCEERNLLSVAYENVVGGQEAAWRVLSSIEQKSNEEGSEEKGPEVREYREKVETELQGVCDTVLGLLDSHLIKEAGDAESRVFYLKMKGDYYRYLAEVATGDDKKRIIDSARSAYQEAMDISKKEMPPTNPIRLGLALNFSDFHYEIANSPEEAISLAKTTFDEAMADLHTLSEDSYKDSTLIMQLLRDNLTLWTADNAGEEGGEAPQEPQS [K49E;R56E;V178D] |

Variants of: B2
Conditions: with hipk4_human HIPK4, Q8NE63

| effect of a mutation on the interaction | Variant |
| --- | --- |
| decreasing interaction strength | MERASLIQKAKLAEQAERYEDMAAFMKGAVEKGEELSCEERNLLSVAYENVVGGQEAAWRVLSSIEQKSNEEGSEEKGPEVREYREKVETELQGVCDTVLGLLDSHLIKEAGDAESRVFYLKMKGDYYRYLAEVATGDDKKRIIDSARSAYQEAMDISKKEMPPTNPIRLGLALNFSDFHYEIANSPEEAISLAKTTFDEAMADLHTLSEDSYKDSTLIMQLLRDNLTLWTADNAGEEGGEAPQEPQS [K49E;R56E;V178D] |

Variants of: B3
Conditions: with dyrk4_human DYRK4, Q9NR20

| effect of a mutation on the interaction | Variant |
| --- | --- |
| decreasing interaction strength | MERASLIQKAKLAEQAERYEDMAAFMKGAVEKGEELSCEERNLLSVAYENVVGGQEAAWRVLSSIEQKSNEEGSEEKGPEVREYREKVETELQGVCDTVLGLLDSHLIKEAGDAESRVFYLKMKGDYYRYLAEVATGDDKKRIIDSARSAYQEAMDISKKEMPPTNPIRLGLALNFSDFHYEIANSPEEAISLAKTTFDEAMADLHTLSEDSYKDSTLIMQLLRDNLTLWTADNAGEEGGEAPQEPQS [K49E;R56E;V178D] |

Variants of: B4
Conditions: with tnk1_human TNK1, Q13470

| effect of a mutation on the interaction | Variant |
| --- | --- |
| decreasing interaction strength | MERASLIQKAKLAEQAERYEDMAAFMKGAVEKGEELSCEERNLLSVAYENVVGGQEAAWRVLSSIEQKSNEEGSEEKGPEVREYREKVETELQGVCDTVLGLLDSHLIKEAGDAESRVFYLKMKGDYYRYLAEVATGDDKKRIIDSARSAYQEAMDISKKEMPPTNPIRLGLALNFSDFHYEIANSPEEAISLAKTTFDEAMADLHTLSEDSYKDSTLIMQLLRDNLTLWTADNAGEEGGEAPQEPQS [K49E;R56E;V178D] |

Variants of: B5
Conditions: with prag1_human PRAG1, Q86YV5

| effect of a mutation on the interaction | Variant |
| --- | --- |
| decreasing interaction strength | MERASLIQKAKLAEQAERYEDMAAFMKGAVEKGEELSCEERNLLSVAYENVVGGQEAAWRVLSSIEQKSNEEGSEEKGPEVREYREKVETELQGVCDTVLGLLDSHLIKEAGDAESRVFYLKMKGDYYRYLAEVATGDDKKRIIDSARSAYQEAMDISKKEMPPTNPIRLGLALNFSDFHYEIANSPEEAISLAKTTFDEAMADLHTLSEDSYKDSTLIMQLLRDNLTLWTADNAGEEGGEAPQEPQS [K49E;R56E;V178D] |
